We go through one substance from publication PMC4773887.

Common to all, as to assay: EMSA
Common to all, as to conditions: EMSA: 10 fmol DNA, 300 uM ddGTP, 3 mM dCTP; 6% native PAGE in 0.5x TBE, 35 min, 180 V; binding buffer, salt, pH and temperature not stated (ref 59)
Background: Mobility shift assays separate free from complexed probe on a gel.

Data set [1] concerns HsPOLγA H1134A (pol-);HsPOLγB WT (Homo sapiens;Homo sapiens).
Data set [2] deals with HsPOLγA WT;HsPOLγB WT (Homo sapiens;Homo sapiens).
For data set [3], the system named is HsPOLγA D274A (exo-);HsPOLγB WT (Homo sapiens;Homo sapiens).
The test system of data set [4] is HsPOLγA Q1102A (pol-);HsPOLγB WT (Homo sapiens;Homo sapiens).

On to EMSA primer-template, for which the Kd (as a rule, a measure of binding affinity in units of concentration) in data set [1] is 3.5 nM; in data set [2], 5.5 nM; in data set [3] it was 2.8 nM; in data set [4], 3.8 nM.
